Results published in the supplement of paper PMC9732359.
± gives the uncertainty stated by the source.

Assay: protein stability index of a GFP-peptide fusion (yeast GPS) (PSI 1-4); higher = more stable; sorted into four equal gates, so the index is relative within each strain
Settings: doa10∆
Outline: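 Tiled 17-residue yeast protein peptides were fused downstream of GFP in a plasmid that also expresses Cherry, and the pooled library was carried in yeast. Mid-log cultures in leucine-free medium were sorted into four equal gates by GFP/Cherry fluorescence ratio, and plasmids from each gate were PCR-amplified and Illumina-sequenced, with reads assigned to strains by barcodes. The protein stability index for each peptide was each gate's read frequency times its gate number, summed.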
In the case of AAAAVCEKWAASSWAKK [RPL14A], the protein stability index is reported as 2.52 ± 0.052.
With AAAEIADEPVKASLLLH [FAS2] the protein stability index was 3.1 ± 0.18.
Sequence AAFEKRYRVDLLNTDHT [RPO21] has a protein stability index of 3.11 ± 0.076.
Sequence AAGAGAAAGAAMIDAGA [FAS2] has a protein stability index of 2.84 ± 0.15.
Sequence AAGKRISHIEKRIESLQ [SMC1] has a protein stability index of 3.09 ± 0.099.
AAGNASSLPPGEILLPD [SNF5] gave a protein stability index of 3.15 ± 0.077.
For AAIRQPTRYVLIRNVGT [POP1], the protein stability index was 1.64 ± 0.073.
AALRTVKSLVDNMITGV [RPL9A] showed a protein stability index of 2.5 ± 0.091.
AAPKKTRKAVRPQKLRA [RPL6B] gave a protein stability index of 2.64 ± 0.11.
AASWYGSFNEMKRNCGQ [RMP1] gave a protein stability index of 2.92 ± 0.051.
Work on AATIGANFIFSPASGIV [RPT4] yielded a protein stability index of 2.56 ± 0.061.
Work on ADNGEEYLTLNDFNDLN [MED2] yielded a protein stability index of 2.96 ± 0.23.
In the case of ADSAVNRQTLMFTATMT [PRP28], the protein stability index is reported as 2.6 ± 0.056.
In the case of ADTKAPTFTFGSSALAD [YLR335W/NUP2], the protein stability index is reported as 3.25 ± 0.069.
Work on AEDLTIAAKTHILRISF [SIN4] yielded a protein stability index of 2.36 ± 0.12.
Work on AEEALEPSYIFEYLATV [PRE4] yielded a protein stability index of 2.66 ± 0.059.
AEEQTKLQSQSLHTKNV [YLR018C/POM34] gave a protein stability index of 3.29 ± 0.058.
Sequence AEEVRNFALTTLIDLVK [ECM29] has a protein stability index of 2.59 ± 0.086.
AEFKKRKIEAETRNGKV [YCS4] gave a protein stability index of 2.82 ± 0.1.
Sequence AEHSQNKIDQSLQYIER [YJL041W/NSP1] has a protein stability index of 3.17 ± 0.069.
AELNLPTVDEQRQYKVQ [SNF11] showed a protein stability index of 3.22 ± 0.081.
For AELQSNLQVELLSEHDD [YGL100W/SEH1], the protein stability index was 2.61 ± 0.083.
With AELVQKYIGEGSRMVRE [RPT6] the protein stability index was 2.74 ± 0.088.
Sequence AENDVIEATDLGNIASS [BRR2] has a protein stability index of 3.05 ± 0.075.
Work on AFDVDRAKSCGVDAMSV [RPL1A] yielded a protein stability index of 2.79 ± 0.092.
For AFETHYRRLFAKRLIHG [CDC53], the protein stability index was 2.46 ± 0.076.
AFFREKGLVSQQLDSFN [RPB2] showed a protein stability index of 3.11 ± 0.13.
For AFGSSATDISGELRDYI [YJR042W/NUP85], the protein stability index was 3.26 ± 0.14.
For AFRTLRLARSEKKFRGI [RPL13A], the protein stability index was 3.4 ± 0.24.
In the case of AFSFGAKPDEKKNDEVS [YJL041W/NSP1], the protein stability index is reported as 3.22 ± 0.16.
Sequence AFVKQKNDSLEKTINDL [YIL149C/MLP2] has a protein stability index of 3.1 ± 0.11.
Work on AFYQKGNKLVELMRIIS [SMC1] yielded a protein stability index of 1.59 ± 0.27.
In the case of AGEFGLKNKKEIYRISF [RPS9A], the protein stability index is reported as 2.58 ± 0.065.
In the case of AGFDPRDDEPKLYQTEP [PRE6], the protein stability index is reported as 3.24 ± 0.084.
AGIVPVSANTPKSLNSN [SWI1] gave a protein stability index of 3.07 ± 0.059.
For AGKWFDPVLDWRKSDRE [SIR4], the protein stability index was 3.17 ± 0.088.
In the case of AGNKVGQSEASLLNLLN [RPP0], the protein stability index is reported as 3.03 ± 0.12.
AGVEDVYTQSNGKTRTL [RPS2] gave a protein stability index of 2.76 ± 0.11.
AHEIIKREEKAMTIYWD [CDC53] gave a protein stability index of 2.03 ± 0.087.
AHNKPSLFSKIKTFFTQ [YAR002W/NUP60] showed a protein stability index of 2.37 ± 0.079.

Same assay, conditions: pdr5∆
Sequence AAAAVCEKWAASSWAKK [RPL14A] has a protein stability index of 3.08 ± 0.089.
In the case of AAAEIADEPVKASLLLH [FAS2], the protein stability index is reported as 3.01 ± 0.24.
AAFEKRYRVDLLNTDHT [RPO21] gave a protein stability index of 3 ± 0.059.
Sequence AAGAGAAAGAAMIDAGA [FAS2] has a protein stability index of 2.98 ± 0.12.
AAGKRISHIEKRIESLQ [SMC1] gave a protein stability index of 3.07 ± 0.096.
AAGNASSLPPGEILLPD [SNF5] showed a protein stability index of 3.2 ± 0.063.
Sequence AAIRQPTRYVLIRNVGT [POP1] has a protein stability index of 2.07 ± 0.083.
AALRTVKSLVDNMITGV [RPL9A] gave a protein stability index of 3.17 ± 0.076.
Work on AAPKKTRKAVRPQKLRA [RPL6B] yielded a protein stability index of 2.61 ± 0.29.
Work on AASWYGSFNEMKRNCGQ [RMP1] yielded a protein stability index of 3.3 ± 0.054.
AATIGANFIFSPASGIV [RPT4] gave a protein stability index of 2.66 ± 0.055.
ADNGEEYLTLNDFNDLN [MED2] gave a protein stability index of 3.3 ± 0.14.
ADSAVNRQTLMFTATMT [PRP28] gave a protein stability index of 2.72 ± 0.049.
With ADTKAPTFTFGSSALAD [YLR335W/NUP2] the protein stability index was 3.01 ± 0.053.
AEDLTIAAKTHILRISF [SIN4] gave a protein stability index of 3.02 ± 0.09.
With AEEALEPSYIFEYLATV [PRE4] the protein stability index was 2.44 ± 0.067.
Work on AEEQTKLQSQSLHTKNV [YLR018C/POM34] yielded a protein stability index of 3.44 ± 0.063.
Sequence AEEVRNFALTTLIDLVK [ECM29] has a protein stability index of 1.9 ± 0.075.
With AEFKKRKIEAETRNGKV [YCS4] the protein stability index was 3.18 ± 0.072.
With AEHSQNKIDQSLQYIER [YJL041W/NSP1] the protein stability index was 3.16 ± 0.043.
Sequence AELNLPTVDEQRQYKVQ [SNF11] has a protein stability index of 3.3 ± 0.08.
For AELQSNLQVELLSEHDD [YGL100W/SEH1], the protein stability index was 2.95 ± 0.065.
Work on AELVQKYIGEGSRMVRE [RPT6] yielded a protein stability index of 2.69 ± 0.075.
With AENDVIEATDLGNIASS [BRR2] the protein stability index was 3.17 ± 0.086.
In the case of AFAGSKNDEVLGLLLPI [RPN1], the protein stability index is reported as 3.2 ± 0.14.
AFDVDRAKSCGVDAMSV [RPL1A] showed a protein stability index of 2.73 ± 0.094.
For AFETHYRRLFAKRLIHG [CDC53], the protein stability index was 2.54 ± 0.071.
AFFREKGLVSQQLDSFN [RPB2] showed a protein stability index of 3.17 ± 0.19.
With AFGSSATDISGELRDYI [YJR042W/NUP85] the protein stability index was 3.54 ± 0.13.
AFRTLRLARSEKKFRGI [RPL13A] showed a protein stability index of 3.49 ± 0.15.
Sequence AFSFGAKPDEKKNDEVS [YJL041W/NSP1] has a protein stability index of 3.19 ± 0.15.
Work on AFVKQKNDSLEKTINDL [YIL149C/MLP2] yielded a protein stability index of 3.19 ± 0.11.
AFYQKGNKLVELMRIIS [SMC1] gave a protein stability index of 1.15 ± 0.19.
AGEFGLKNKKEIYRISF [RPS9A] showed a protein stability index of 2.95 ± 0.089.
For AGFDPRDDEPKLYQTEP [PRE6], the protein stability index was 3.03 ± 0.12.
AGIVPVSANTPKSLNSN [SWI1] gave a protein stability index of 3.04 ± 0.066.
For AGKWFDPVLDWRKSDRE [SIR4], the protein stability index was 3.44 ± 0.087.
Sequence AGNKVGQSEASLLNLLN [RPP0] has a protein stability index of 2.25 ± 0.095.
